# Data as given in the RNAGym collection of RNA variant scans (doi:10.7554/elife.90254).
# B1: LINE1-full (parent)
# chain: UACGUAGGUGGUUUUCCCCUGAUAGUGCUAAGGGGGCCUGGAAGUUUGGACUGGGCAGAGCUCAACACAGCGUGGCAAAGUGGCUGUGGCUAGACUGCCUCUCUGGAUUCCUCGUCACUCAGCAGGGCAUCUCUGAGAGAAAUGCC
# Variants of: B1
# Test: self-cleavage, relative activity (ratio to wild type); higher = more cleavage; in vitro, sequencing; the parent is a self-cleaving ribozyme
row,Variant,self-cleavage
1,U23C U132C,1.58
2,U23C U143A,1.28
3,U23G,1.18
4,U23G A42G,1.46
5,U23G U46A,1.3
6,U23G U87A,0.11
7,U23G U102C,1.02
8,U23G U112C,1.07
9,U23G U115C,1.29
10,A24C,1.62
11,A24C A57G,1.17
12,A24C A65U,0
13,A24C A77G,2.76
14,A24C A121G,2.59
15,A24C A138G,0.88
16,A24C A140G,1.15
17,A24C C51U,1.37
18,A24C C99A,0.47
19,A24C G49A,0.82
20,A24C G114A,0.68
21,A24C G139A,1.45
22,A24C U47C,2.18
23,A24C U73C,1.84
24,A24C U91A,0.57

row,Variant,self-cleavage
1,A24C U109A,2.55
2,A24G,1.17
3,A24G A30G,0.42
4,A24G A31G,0.72
5,A24G A42G,1.11
6,A24G A50U,1.55
7,A24G A57G,1.14
8,A24G A57U,0.27
9,A24G A59G,0.21
10,A24G A64U,0.47
11,A24G A65C,0.16
12,A24G A67G,0.45
13,A24G A69U,0.21
14,A24G A77C,2.04
15,A24G A77G,1.41
16,A24G A78G,1.19
17,A24G A78U,2.33
18,A24G A92U,1.34
19,A24G A117G,1.78
20,A24G A121C,2.3
21,A24G A121U,2.93
22,A24G A124U,1.54
23,A24G A136G,1.15
24,A24G A138G,1.07

row,Variant,self-cleavage
1,A24G A141U,1.41
2,A24G A142G,1.1
3,A24G C116U,0.65
4,A24G C120U,1.29
5,A24G C123U,0.71
6,A24G C128A,0.65
7,A24G G25U,1.14
8,A24G G27U,1.17
9,A24G G33C,0.8
10,A24G G34U,0.21
11,A24G G35A,0.69
12,A24G G53U,1.03
13,A24G G75A,1.02
14,A24G G86A,0.12
15,A24G G93A,0.13
16,A24G G97A,0.17
17,A24G G122C,1.12
18,A24G G126A,1.09
19,A24G G139A,1.3
20,A24G G139U,2.56
21,A24G U26C,0.97
22,A24G U29A,1.3
23,A24G U39A,0.77
24,A24G U45C,1.12

row,Variant,self-cleavage
1,A24G U45G,0
2,A24G U46C,1.74
3,A24G U46G,1.28
4,A24G U47C,1.05
5,A24G U52A,0.79
6,A24G U62A,0.07
7,A24G U62C,0.14
8,A24G U73A,1.2
9,A24G U73C,1.68
10,A24G U81A,0.47
11,A24G U85A,0.13
12,A24G U85G,0.1
13,A24G U87C,0.19
14,A24G U91C,0.81
15,A24G U100C,1.32
16,A24G U102A,1.15
17,A24G U102C,1.73
18,A24G U102G,0.54
19,A24G U104A,1.24
20,A24G U104C,2.26
21,A24G U108A,1.49
22,A24G U108C,1.68
23,A24G U109C,0.76
24,A24G U112A,1.51

row,Variant,self-cleavage
1,A24G U112C,1.41
2,A24G U115A,1.45
3,A24G U115C,1.46
4,A24G U119C,0.83
5,A24G U130C,1.47
6,A24G U143C,1.12
7,A24U,1.25
8,A24U A30G,1.09
9,A24U A31U,1.09
10,A24U A42G,1.54
11,A24U A57C,0
12,A24U A57U,0.16
13,A24U A59G,0.06
14,A24U A64G,0.23
15,A24U A64U,0.35
16,A24U A67U,0.1
17,A24U A69G,0.53
18,A24U A69U,0.09
19,A24U A77G,2.22
20,A24U A77U,0.93
21,A24U A78G,1.31
22,A24U A92G,0.08
23,A24U A107G,2.24
24,A24U A107U,1.64

row,Variant,self-cleavage
1,A24U A117G,0.54
2,A24U A121U,0.55
3,A24U A124G,1.06
4,A24U A129G,0.75
5,A24U A136G,1.64
6,A24U A138U,1.93
7,A24U A140G,1.75
8,A24U C37G,0.82
9,A24U C51U,0.84
10,A24U C116A,1.7
11,A24U C120U,0.79
12,A24U C123U,1.02
13,A24U G35A,0.8
14,A24U G35U,0.67
15,A24U G49A,1.39
16,A24U G80C,1.41
17,A24U G86U,0.13
18,A24U U39C,1.47
19,A24U U45A,0.82
20,A24U U45C,1.19
21,A24U U46C,1.54
22,A24U U47A,0.99
23,A24U U62C,0.08
24,A24U U73C,1.79

row,Variant,self-cleavage
1,A24U U81C,1.24
2,A24U U85C,0.15
3,A24U U87C,0.3
4,A24U U91C,0.45
5,A24U U96A,0.07
6,A24U U96C,0.07
7,A24U U104A,0.65
8,A24U U104C,1.25
9,A24U U108A,1.51
10,A24U U108C,1.33
11,A24U U112C,1.28
12,A24U U115A,1.54
13,A24U U115C,1.92
14,A24U U119A,1.09
15,A24U U130C,1.35
16,A24U U143C,1.63
17,G25A,1.21
18,G25A A30U,0.7
19,G25A A65C,0.02
20,G25A A69G,0.41
21,G25A A77G,0.92
22,G25A A79G,0.91
23,G25A A140G,1.49
24,G25A A141G,0.96

row,Variant,self-cleavage
1,G25A A142G,1.35
2,G25A C38U,0.64
3,G25A C76U,1.35
4,G25A G54U,0.45
5,G25A G105A,1.27
6,G25A U26A,1.07
7,G25A U62C,0.11
8,G25A U81C,1.91
9,G25A U87C,0.22
10,G25A U96C,0
11,G25A U100C,1.81
12,G25A U115A,1.05
13,G25C,1.4
14,G25C A69G,0.14
15,G25C A140G,2.41
16,G25C C98G,0.25
17,G25C C116U,1.52
18,G25C U104A,1.91
19,G25C U115A,1.02
20,G25U,1.45
21,G25U A30G,1.27
22,G25U A42G,1.04
23,G25U A59G,0.18
24,G25U A78G,0.96

row,Variant,self-cleavage
1,G25U A79G,0.77
2,G25U A140G,0.7
3,G25U C123A,0.95
4,G25U G114A,1.13
5,G25U U39A,0.31
6,G25U U45G,0.93
7,G25U U46C,1.74
8,U26A,0.94
9,U26A A30G,0.84
10,U26A A31C,1.04
11,U26A A31G,0.81
12,U26A A43G,0.97
13,U26A A43U,0.89
14,U26A A50C,0.78
15,U26A A57U,0.04
16,U26A A59G,0.06
17,U26A A64G,0.2
18,U26A A64U,0.23
19,U26A A67G,0.4
20,U26A A77G,1.84
21,U26A A78G,0.74
22,U26A A78U,1.61
23,U26A A79G,0.75
24,U26A A92U,0.61

row,Variant,self-cleavage
1,U26A A117G,1.11
2,U26A A121G,1.46
3,U26A A121U,1.11
4,U26A A124C,1.4
5,U26A A136U,1.2
6,U26A A138G,1.25
7,U26A A138U,0.78
8,U26A A140G,1.02
9,U26A A141G,1.11
10,U26A A142G,1.2
11,U26A C38A,0.73
12,U26A C66A,0.05
13,U26A C76A,1.51
14,U26A C90A,0.04
15,U26A C95U,0.17
16,U26A C99A,0.09
17,U26A C99U,0.37
18,U26A C103U,0.98
19,U26A C110A,0.95
20,U26A C116U,0.99
21,U26A C120A,1.12
22,U26A C128U,0.72
23,U26A C133U,1.01
24,U26A G33A,0.67

row,Variant,self-cleavage
1,U26A G33U,0.62
2,U26A G34U,0.83
3,U26A G40U,0.37
4,U26A G58U,0.05
5,U26A G72U,0.77
6,U26A G74U,1.94
7,U26A G80U,1.21
8,U26A G82A,1.18
9,U26A G88A,0.07
10,U26A G105U,0.57
11,U26A G114A,0.67
12,U26A G126C,1.42
13,U26A G144A,1.03
14,U26A U29A,1.12
15,U26A U29C,1.44
16,U26A U39C,0.73
17,U26A U45G,0.6
18,U26A U47A,0.59
19,U26A U47C,1
20,U26A U47G,1.6
21,U26A U52A,0.81
22,U26A U73A,1.24
23,U26A U73C,1.15
24,U26A U73G,1.18

row,Variant,self-cleavage
1,U26A U85A,0.16
2,U26A U85C,0.17
3,U26A U87A,0.01
4,U26A U91C,0.32
5,U26A U96G,0.03
6,U26A U100C,1.07
7,U26A U100G,1.31
8,U26A U102A,1.01
9,U26A U102G,0.38
10,U26A U104A,0.98
11,U26A U115C,1.29
12,U26A U119A,0.78
13,U26A U119G,1.45
14,U26A U132A,1.34
15,U26A U134C,0.9
16,U26A U143A,2.23
17,U26A U143C,0.86
18,U26C,1.24
19,U26C A30G,1.05
20,U26C A31C,1.23
21,U26C A31G,0.91
22,U26C A42G,1.06
23,U26C A43C,1.63
24,U26C A43G,1.43

row,Variant,self-cleavage
1,U26C A57G,1.14
2,U26C A57U,0.14
3,U26C A59U,0.84
4,U26C A64G,0.39
5,U26C A67U,0.06
6,U26C A69C,0.08
7,U26C A77U,1.55
8,U26C A78G,1.1
9,U26C A92U,0.81
10,U26C A94G,0.39
11,U26C A94U,0.28
12,U26C A107C,1.89
13,U26C A117G,1.51
14,U26C A117U,2.25
15,U26C A124G,0.64
16,U26C A129G,1.41
17,U26C A136U,1.82
18,U26C A140U,0.59
19,U26C A142G,1.43
20,U26C C37U,0.77
21,U26C C38A,1.28
22,U26C C61A,0.06
23,U26C C61U,0.04
24,U26C C63U,0.66

row,Variant,self-cleavage
1,U26C C76U,1.87
2,U26C C95A,0.1
3,U26C C98U,0.11
4,U26C C101A,0.85
5,U26C C133U,0.98
6,U26C G34A,1.03
7,U26C G35A,1.26
8,U26C G53U,1.2
9,U26C G54A,0.6
10,U26C G58U,0.04
11,U26C G72C,0
12,U26C G75U,0.57
13,U26C G89A,0.03
14,U26C G93A,0.03
15,U26C G93C,0.17
16,U26C G105A,1.32
17,U26C G114U,1.49
18,U26C G127A,1.37
19,U26C G135A,1.65
20,U26C G144C,1.68
21,U26C U29A,1.35
22,U26C U39C,0.9
